Test results reported in US20230212549A1 (3B PHARMACEUTICALS, published 2023).
Several values for one entry are separate records, joined by “and”; a condition that tells them apart may be missing. Equal values may be shown once. Numbered stars: 1 amine (or outer) side, 2 acyl side, 3 side chain; on linkers, the order of the positions; unused ones are H or OH. Bridge positions count the residues as written; N and C are the ends. Square brackets hold non-standard residues; d marks the D form. Primed or numbered codes have the meaning given here. Side chains are listed from the residue outwards. * marks the point of attachment. Ttds″ = 1,13-diamino-4,7,10-trioxatridecan-succinamic acid spacer, O=C(CCC(=O)[*:2])NCCCOCCOCCOCCCN[*:1]; TBMB(SCH2CH2NH-DOTA) = O=C(O)CN1CCN(CC(=O)O)CCN(CC(=O)NCCSCc2cc(C[*:1])cc(C[*:2])c2)CCN(CC(=O)O)CC1; Ttds = 1,13-diamino-4,7,10-trioxatridecan-succinamic acid, O=C(CCC(=O)[*:2])NCCCOCCOCCOCCCN[*:1]; DOTA = O=C(O)CN1CCN(CC(=O)O)CCN(CC(=O)*)CCN(CC(=O)O)CC1; Biotin = O=C1N[C@H]2[C@H](CS[C@H]2CCCCC(=O)*)N1; Bip = N[C@@H](Cc1ccc(-c2ccccc2)cc1)C(=O)O; Met(O2) = CS(=O)(=O)CC[C@H](N)C(=O)O; mXylylene = c1cc(C[*:1])cc(C[*:2])c1; Pentanesulfonyl = CCCCCS(=O)(=O)*; NMeE = CN[C@@H](CCC(=O)O)C(=O)O; 3Amb = NCc1cccc(C(=O)O)c1; 4Amb = NCc1ccc(C(=O)O)cc1; DOTA′ = not defined here; Nle = CCCC[C@H](N)C(=O)O; Nphe = O=C(O)CNCc1ccccc1; Apr = not defined here; Hexanoyl = CCCCCC(=O)*; AEEA = NCCOCCOCC(=O)O; Sar = CNCC(=O)O

B1: DOTA-Ttds-Nle-[Cys(3MeBn)-Pro-Pro-Thr-Glu-Phe-Cys]-Asp-Pamb-Arg-NH2 (peptide)
peptide: {DOTA}-[Ttds][Nle]CPPTEFCD[4Amb]R-NH2
modifications: linker 3-9 via mXylylene
SMILES: CCCC[C@H](NC(=O)CCC(=O)NCCCOCCOCCOCCCNC(=O)CN1CCN(CC(=O)O)CCN(CC(=O)O)CCN(CC(=O)O)CC1)C(=O)N[C@H]1CSCc2cccc(c2)CSC[C@@H](C(=O)N[C@@H](CC(=O)O)C(=O)NCc2ccc(C(=O)N[C@@H](CCCNC(=N)N)C(N)=O)cc2)NC(=O)[C@H](Cc2ccccc2)NC(=O)[C@H](CCC(=O)O)NC(=O)[C@H]([C@@H](C)O)NC(=O)[C@@H]2CCCN2C(=O)[C@@H]2CCCN2C1=O
notes: also called 3BP-3321
B2: Hex-[Cys(3MeBn)-Pro-Pro-Thr-Glu(NH-Apr-O2Oc-DOTA′)-Phe-Cys]-Asp-NH2 (peptide)
peptide: Hexanoyl-CPPTE([Apr-AEEA-DOTA′])FCD-NH2
modifications: linker 1-7 via mXylylene; reading uncertain; also: printed as Hex-[Cys(3MeBn)-Pro-Pro-Thr-Glu(NH-Apr-O2Oc-DOTA′)-Phe-Cys]-Asp-NH2
B3: Hex-[Cys(3MeBn)-Pro-Pro-Thr-Glu-Phe-Cys]-Asp-NH2 (peptide)
peptide: Hexanoyl-CPPTEFCD-NH2
modifications: linker 1-7 via mXylylene
SMILES: CCCCCC(=O)N[C@H]1CSCc2cccc(c2)CSC[C@@H](C(=O)N[C@@H](CC(=O)O)C(N)=O)NC(=O)[C@H](Cc2ccccc2)NC(=O)[C@H](CCC(=O)O)NC(=O)[C@H]([C@@H](C)O)NC(=O)[C@@H]2CCCN2C(=O)[C@@H]2CCCN2C1=O
B4: Hex-[Cys(tMeBn(DOTA-AET))-Nmg-Pro-Thr-Gln-Phe-Cys]-OH (peptide)
peptide: Hexanoyl-C[Sar]PTQFC-OH
modifications: linker 1-7 via TBMB(SCH2CH2NH-DOTA)
SMILES: CCCCCC(=O)N[C@H]1CSCc2cc(CSCCNC(=O)CN3CCN(CC(=O)O)CCN(CC(=O)O)CCN(CC(=O)O)CC3)cc(c2)CSC[C@@H](C(=O)O)NC(=O)[C@H](Cc2ccccc2)NC(=O)[C@H](CCC(N)=O)NC(=O)[C@H]([C@@H](C)O)NC(=O)[C@@H]2CCCN2C(=O)CN(C)C1=O
notes: also called 3BP-3678
B5: Hex-[Cys(3MeBn)-Pro-Pro-Thr-Nme-Phe-Cys]-NH2 (peptide)
peptide: Hexanoyl-CPPT[NMeE]FC-NH2
modifications: linker 1-7 via mXylylene
SMILES: CCCCCC(=O)N[C@H]1CSCc2cccc(c2)CSC[C@@H](C(N)=O)NC(=O)[C@H](Cc2ccccc2)NC(=O)[C@H](CCC(=O)O)N(C)C(=O)[C@H]([C@@H](C)O)NC(=O)[C@@H]2CCCN2C(=O)[C@@H]2CCCN2C1=O
B6: Hex-[Cys(3MeBn)-Pro-Pro-Thr-Ala-Phe-Cys]-NH2 (peptide)
peptide: Hexanoyl-CPPTAFC-NH2
modifications: linker 1-7 via mXylylene
SMILES: CCCCCC(=O)N[C@H]1CSCc2cccc(c2)CSC[C@@H](C(N)=O)NC(=O)[C@H](Cc2ccccc2)NC(=O)[C@H](C)NC(=O)[C@H]([C@@H](C)O)NC(=O)[C@@H]2CCCN2C(=O)[C@@H]2CCCN2C1=O
B7: Hex-[Cys(3MeBn)-Pro-Pro-Ala-Glu-Phe-Cys]-NH2 (peptide)
peptide: Hexanoyl-CPPAEFC-NH2
modifications: linker 1-7 via mXylylene
SMILES: CCCCCC(=O)N[C@H]1CSCc2cccc(c2)CSC[C@@H](C(N)=O)NC(=O)[C@H](Cc2ccccc2)NC(=O)[C@H](CCC(=O)O)NC(=O)[C@H](C)NC(=O)[C@@H]2CCCN2C(=O)[C@@H]2CCCN2C1=O
B8: Hex-[Cys(3MeBn)-Pro-Pro-Thr-Glu-Bip-Cys]-NH2 (peptide)
peptide: Hexanoyl-CPPTE[Bip]C-NH2
modifications: linker 1-7 via mXylylene
SMILES: CCCCCC(=O)N[C@H]1CSCc2cccc(c2)CSC[C@@H](C(N)=O)NC(=O)[C@H](Cc2ccc(-c3ccccc3)cc2)NC(=O)[C@H](CCC(=O)O)NC(=O)[C@H]([C@@H](C)O)NC(=O)[C@@H]2CCCN2C(=O)[C@@H]2CCCN2C1=O
B9: H-Met-[Cys(3MeBn)-Pro-Pro-Thr-Glu-Phe-Cys]-Asp-His-Phe-Arg-Asp-Ttds-Lys(Bio)-NH2 (peptide)
peptide: H-MCPPTEFCDHFRD[Ttds″]K(Biotin)-NH2
modifications: linker 2-8 via mXylylene
SMILES: CSCC[C@H](N)C(=O)N[C@H]1CSCc2cccc(c2)CSC[C@@H](C(=O)N[C@@H](CC(=O)O)C(=O)N[C@@H](Cc2c[nH]cn2)C(=O)N[C@@H](Cc2ccccc2)C(=O)N[C@@H](CCCNC(=N)N)C(=O)N[C@@H](CC(=O)O)C(=O)NCCCOCCOCCOCCCNC(=O)CCC(=O)N[C@@H](CCCCNC(=O)CCCC[C@@H]2SC[C@@H]3NC(=O)N[C@@H]32)C(N)=O)NC(=O)[C@H](Cc2ccccc2)NC(=O)[C@H](CCC(=O)O)NC(=O)[C@H]([C@@H](C)O)NC(=O)[C@@H]2CCCN2C(=O)[C@@H]2CCCN2C1=O
notes: also called 3BP-2881
B10: Hex-[Cys(tMeBn(DOTA-AET))-Pro-Pro-Thr-Gln-Mpa-Cys]-OH (peptide)
peptide: Hexanoyl-CPPTQXC-OH
modifications: linker 1-7 via TBMB(SCH2CH2NH-DOTA); not fully specified (residue 6); printed as Hex-[Cys(tMeBn(DOTA-AET))-Pro-Pro-Thr-Gln-Mpa-Cys]-OH
notes: also called 3BP-3664
B11: Hex-[Cys(3MeBn)-Pro-Pro-Thr-Glu-Nphe-Cys]-NH2 (peptide)
peptide: Hexanoyl-CPPTE[Nphe]C-NH2
modifications: linker 1-7 via mXylylene
SMILES: CCCCCC(=O)N[C@H]1CSCc2cccc(c2)CSC[C@@H](C(N)=O)NC(=O)CN(Cc2ccccc2)C(=O)[C@H](CCC(=O)O)NC(=O)[C@H]([C@@H](C)O)NC(=O)[C@@H]2CCCN2C(=O)[C@@H]2CCCN2C1=O
B12: Hex-[Cys(tMeBn(DOTA-AET))-Pro-Pro-Thr-Gln-Phe-AET] (peptide)
peptide: CPPTQFX
modifications: not fully specified; N-term Hex; X7 = AET (2-aminoethanethiol, no carboxyl group); Cys1/AET7 thioether-bridged by tMeBn carrying DOTA-AET
notes: also called 3BP-3654
B13: Hex-[Cys(3MeBn)-Pro-Pro-Thr-Moo-Phe-Cys]-NH2 (peptide)
peptide: Hexanoyl-CPPT[Met(O2)]FC-NH2
modifications: linker 1-7 via mXylylene
SMILES: CCCCCC(=O)N[C@H]1CSCc2cccc(c2)CSC[C@@H](C(N)=O)NC(=O)[C@H](Cc2ccccc2)NC(=O)[C@H](CCS(C)(=O)=O)NC(=O)[C@H]([C@@H](C)O)NC(=O)[C@@H]2CCCN2C(=O)[C@@H]2CCCN2C1=O
B14: DOTA-Ttds-Nle-[Cys(3MeBn)-Pro-Pro-Thr-Gln-Phe-Cys]-Asp-NH2 (peptide)
peptide: {DOTA}-[Ttds][Nle]CPPTQFCD-NH2
modifications: linker 3-9 via mXylylene
SMILES: CCCC[C@H](NC(=O)CCC(=O)NCCCOCCOCCOCCCNC(=O)CN1CCN(CC(=O)O)CCN(CC(=O)O)CCN(CC(=O)O)CC1)C(=O)N[C@H]1CSCc2cccc(c2)CSC[C@@H](C(=O)N[C@@H](CC(=O)O)C(N)=O)NC(=O)[C@H](Cc2ccccc2)NC(=O)[C@H](CCC(N)=O)NC(=O)[C@H]([C@@H](C)O)NC(=O)[C@@H]2CCCN2C(=O)[C@@H]2CCCN2C1=O
notes: also called 3BP-3401
B15: Hex-[Cys(3MeBn)-Ala-Pro-Thr-Glu-Phe-Cys]-NH2 (peptide)
peptide: Hexanoyl-CAPTEFC-NH2
modifications: linker 1-7 via mXylylene
SMILES: CCCCCC(=O)N[C@H]1CSCc2cccc(c2)CSC[C@@H](C(N)=O)NC(=O)[C@H](Cc2ccccc2)NC(=O)[C@H](CCC(=O)O)NC(=O)[C@H]([C@@H](C)O)NC(=O)[C@@H]2CCCN2C(=O)[C@H](C)NC1=O
B16: Pentyl-SO2-[Cys(tMeBn(DOTA-AET))-Pro-Pro-Thr-Glu-Phe-Cys]-OH (peptide)
peptide: Pentanesulfonyl-CPPTEFC-OH
modifications: linker 1-7 via TBMB(SCH2CH2NH-DOTA)
SMILES: CCCCCS(=O)(=O)N[C@H]1CSCc2cc(CSCCNC(=O)CN3CCN(CC(=O)O)CCN(CC(=O)O)CCN(CC(=O)O)CC3)cc(c2)CSC[C@@H](C(=O)O)NC(=O)[C@H](Cc2ccccc2)NC(=O)[C@H](CCC(=O)O)NC(=O)[C@H]([C@@H](C)O)NC(=O)[C@@H]2CCCN2C(=O)[C@@H]2CCCN2C1=O
notes: also called 3BP-3691
B17: Hex-[Cys(3MeBn)-Pro-Pro-Thr-Glu-Ala-Cys]-NH2 (peptide)
peptide: Hexanoyl-CPPTEAC-NH2
modifications: linker 1-7 via mXylylene
SMILES: CCCCCC(=O)N[C@H]1CSCc2cccc(c2)CSC[C@@H](C(N)=O)NC(=O)[C@H](C)NC(=O)[C@H](CCC(=O)O)NC(=O)[C@H]([C@@H](C)O)NC(=O)[C@@H]2CCCN2C(=O)[C@@H]2CCCN2C1=O
B18: Hex-[Cys(tMeBn(DOTA-AET))-Pro-Pro-Thr-Glu-Phe-Cys]-NH2 (peptide)
peptide: Hexanoyl-CPPTEFC-NH2
modifications: linker 1-7 via TBMB(SCH2CH2NH-DOTA)
SMILES: CCCCCC(=O)N[C@H]1CSCc2cc(CSCCNC(=O)CN3CCN(CC(=O)O)CCN(CC(=O)O)CCN(CC(=O)O)CC3)cc(c2)CSC[C@@H](C(N)=O)NC(=O)[C@H](Cc2ccccc2)NC(=O)[C@H](CCC(=O)O)NC(=O)[C@H]([C@@H](C)O)NC(=O)[C@@H]2CCCN2C(=O)[C@@H]2CCCN2C1=O
notes: also called 3BP-3653
B19: Hex-[Cys(3MeBn)-Pro-Pro-Thr-Glu(NH-Apr-DOTA′)-Phe-Cys]-Asp-NH2 (peptide)
peptide: Hexanoyl-CPPTE([Apr-DOTA′])FCD-NH2
modifications: linker 1-7 via mXylylene; reading uncertain; also: printed as Hex-[Cys(3MeBn)-Pro-Pro-Thr-Glu(NH-Apr-DOTA′)-Phe-Cys]-Asp-NH2
B20: Hex-[Cys(3MeBn)-Pro-Pro-Thr-Glu-Phe-Cys]-Asp-Mamb-Arg-NH2 (peptide)
peptide: Hexanoyl-CPPTEFCD[3Amb]R-NH2
modifications: linker 1-7 via mXylylene
SMILES: CCCCCC(=O)N[C@H]1CSCc2cccc(c2)CSC[C@@H](C(=O)N[C@@H](CC(=O)O)C(=O)NCc2cccc(C(=O)N[C@@H](CCCNC(=N)N)C(N)=O)c2)NC(=O)[C@H](Cc2ccccc2)NC(=O)[C@H](CCC(=O)O)NC(=O)[C@H]([C@@H](C)O)NC(=O)[C@@H]2CCCN2C(=O)[C@@H]2CCCN2C1=O
notes: also called 3BP-3324

Each binder was assayed against Recombinant human FAP (R&D systems, #3715-SE) (human, UniProt Q12884 26-760) (assay: cell-based or functional assay).

Binder	pIC50 Category (Activity)
B1	> 8 pIC50
B2	6.1 pIC50 and 7 pIC50
B3	> 8 pIC50
B4	> 8 pIC50
B5	≤ 6 pIC50
B6	≤ 6 pIC50
B7	≤ 6 pIC50
B8	≤ 6 pIC50
B9	> 8 pIC50
B10	> 8 pIC50
B11	≤ 6 pIC50
B12	> 8 pIC50
B13	≤ 6 pIC50
B14	> 8 pIC50
B15	6.1 pIC50 and 7 pIC50
B16	7.1 pIC50 and 8 pIC50
B17	6.1 pIC50 and 7 pIC50
B18	> 8 pIC50
B19	≤ 6 pIC50
B20	> 8 pIC50

Each binder was assayed against T1, fibroblast activation protein (FAP) on FAP-expressing human WI-38 fibroblasts (human, UniProt Q12884 1-760) (assay: competitive FACS, WI-38 cells, vs Cy5 tracer m3; A = pIC50 >8.0).
T1 construct: also called human FAP

Binder	pIC50 Category (FACS)
B1	> 8 pIC50
B4	> 8 pIC50
B9	> 8 pIC50
B10	> 8 pIC50
B12	> 8 pIC50
B14	> 8 pIC50
B16	> 8 pIC50
B18	> 8 pIC50
B20	> 8 pIC50
